Reference: patent US10260060B2, “Genetically modified phenylpyruvate decarboxylase, processes to prepare, and uses thereof” (Dow Global Technologies LLC, priority 2014, dated 2019)

Assays:
Type in all cases: biochemical, Azospirillum brasilense
[1] = substrate: CCCCCCCC(=O)C(=O)O; test: HTP AbPPDC coupled enzyme assay (ADH6/NADPH), 2-ketoacid decarboxylation kinetics, F532V; settings: other: pH 6.8, 30° C, 2-ketoacid 0 to 4 mM, Hill equation, mean ± standard error
Method: (§1) The evaluation of the AbPPDC variants is performed in two steps using the high-throughput enzyme assay described hereinbelow. Initially, all the variants are tested for activity against a single high concentration (2 mM) of 2-KH and 2-KN (as shown in Table 1). Following the initial evaluation, detailed kinetic analysis is performed on a select number of variants to determine the maximal rate (kcat), substrate concentration yielding half maximal rate (K0.5, equivalent of KM for enzymes following Michaelis-Menten kinetics), and the catalytic efficiency of the enzyme (kcat/K0.5) against 2-KO and 2-KN (as shown in Table 2). AbPPDC variants, having higher specificity (higher kcat/K0.5) for 2-KN, will be efficient in producing octanal and chemicals derived from it inside the cells.
(§2) To evaluate the substrate specificity of the wild type AbPPDC and its variants listed in Table 1, genes of all the proteins are expressed in E. coli cells separately and the protein products are isolated from the cells. The gene sequence of the Azospirillum brasilense phenylpyruvate decarboxylase (GenBank: Accession no. L26240) is downloaded from the NCBI database. Codons of 13 additional amino acids that include six (6) histidines (his) are added upstream of the Met-1 codon of the AbPPDC gene sequence. Such a modification allows expression of a Histidine-tagged AbPPDC having 13 additional amino acids on the N-terminus. The additional amino acids are attached as an aid for purifying the protein in a single step using Ni-NTA chromatography. The entire AbPPDC sequence with 13 additional amino acids (SEQ ID 2) is chemically synthesized and then cloned into the pRSFDuet-1 vector (EMD Biosciences) downstream of the T7 polymerase promoter by Synthetic Genomics, Inc. (San Diego, Calif.). The final vector is sequenced by Synthetic Genomics, Inc. before shipping.
(§3) Genes of the AbPPDC variants listed in Table 1 are either chemically synthesized or generated using New England Biolab's Q5 Site-directed Mutagenesis Kit (cat. no. E0554S) and cloned into the pRSFDuet-1 vector. The pRSFDuet-1 vector containing AbPPDC or the AbPPDC variant gene is transformed into E. coli, AbPPDC or its variant, then expressed and eventually purified, as described below.
(§4) A high-throughput AbPPDC coupled enzyme assay is developed for evaluating the substrate specificity of AbPPDC variants. The assay involves reducing the aldehyde produced from AbPPDC mediated 2-ketoacid decarboxylation, using an alcohol dehydrogenase (ADH6, GenBank: Accession No. NP 014051.3). The initial velocities of the AbPPDC catalyzed reactions are determined from the rates of oxidation of reduced nicotinamide adenine dinucleotide phosphate (NADPH) occurring during the ADH6 catalyzed reduction of aldehyde.
(§5) The HTP screening assay involves incubating 2 mM 2-KH or 2 mM 2-KN with 0.5 mM thiamine diphosphate, 0.35 mM NADPH, 4.7 micrograms (μg) of yeast ADH6 (GenBank: Accession No. NP 014051.3) and 0.3 milligrams per milliliter (mg/mL) bovine serum albumin (BSA) in AbPPDC assay buffer (50 mM 3-(N-morpholino)propanesulfonic acid, pH 6.8, containing 2.5 mM magnesium chloride (MgCl2)) at 30° C. The reaction is started by addition at 30° C. of working enzyme stock containing from 0.5 μg to 3.5 μg of AbPPDC variant diluted in AbPPDC assay buffer containing 1 mg/mL BSA. The plate containing the 200 μL of reaction mixture is centrifuged at 2500×g for 15 sec and the absorbance change of the reaction mixture followed spectrophotometrically at 340 nm on a BioTek™ plate reader, pre-equilibrated at 30° C. Initial velocity of the enzyme reaction is calculated using the rate of NADPH consumption at 340 nm and the extinction coefficient of NADPH (6.22 mM^−1 cm^−1). The activity of all the variants is normalized with the amount of enzyme present in the reaction mixture and expressed as nanomoles per minute per milligram (nmol·min^−1·mg^−1). […]

[2] = substrate: CCCCCCC(=O)C(=O)O; test: as above; settings: other: pH 6.8, 30° C, 2-ketoacid 0 to 4 mM, Hill equation, mean ± standard error
Method: as §1, §2, §3, §4, §5

[3] = substrate: CCCCCCCC(=O)C(=O)O; test: HTP AbPPDC coupled enzyme assay (ADH6/NADPH), 2-ketoacid decarboxylation kinetics, Q536A; settings: other: pH 6.8, 30° C, 2-ketoacid 0 to 4 mM, Hill equation, mean ± standard error
Method: as §1, §2, §3, §4, §5

[4] = substrate: CCCCCCC(=O)C(=O)O; test: as above; settings: other: pH 6.8, 30° C, 2-ketoacid 0 to 4 mM, Hill equation, mean ± standard error
Method: as §1, §2, §3, §4, §5

[5] = substrate: CCCCCCCC(=O)C(=O)O; test: HTP AbPPDC coupled enzyme assay (ADH6/NADPH), 2-ketoacid decarboxylation kinetics, Q536G; settings: other: pH 6.8, 30° C, 2-ketoacid 0 to 4 mM, Hill equation, mean ± standard error
Method: as §1, §2, §3, §4, §5

[6] = substrate: CCCCCCC(=O)C(=O)O; test: as above; settings: other: pH 6.8, 30° C, 2-ketoacid 0 to 4 mM, Hill equation, mean ± standard error
Method: as §1, §2, §3, §4, §5

[7] = substrate: CCCCCCCC(=O)C(=O)O; test: HTP AbPPDC coupled enzyme assay (ADH6/NADPH), 2-ketoacid decarboxylation kinetics, F532L; settings: other: pH 6.8, 30° C, 2-ketoacid 0 to 4 mM, Hill equation, mean ± standard error
Method: as §1, §2, §3, §4, §5

[8] = substrate: CCCCCCC(=O)C(=O)O; test: as above; settings: other: pH 6.8, 30° C, 2-ketoacid 0 to 4 mM, Hill equation, mean ± standard error
Method: as §1, §2, §3, §4, §5

[9] = substrate: CCCCCCCC(=O)C(=O)O; test: HTP AbPPDC coupled enzyme assay (ADH6/NADPH), 2-ketoacid decarboxylation kinetics, Q536L; settings: other: pH 6.8, 30° C, 2-ketoacid 0 to 4 mM, Michaelis-Menten equation, mean ± standard error
Method: as §1, §2, §3, §4, §5

[10] = substrate: CCCCCCC(=O)C(=O)O; test: as above; settings: other: pH 6.8, 30° C, 2-ketoacid 0 to 4 mM, Michaelis-Menten equation, mean ± standard error
Method: as §1, §2, §3, §4, §5

B1: Azospirillum brasilense phenylpyruvate decarboxylase (AbPPDC) variant F532V, SEQ ID 28 (Azospirillum brasilense; F532V) (protein)
chain: MKLAEALLRALKDRGAQAMFGIPGDFALPFFKVAEETQILPLHTLSHEPAVGFAADAAARYSSTLGVAAVTYGAGAFNMVNAVAGAYAEKSPVVVISGAPGTTEGNAGLLLHHQGRTLDTQFQVFKEITVAQARLDDPAKAPAEIARVLGAARALSRPVYLEIPRNMVNAEVEPVGDDPAWPVDRDALAACADEVLAAMRSATSPVLMVCVEVRRYGLEAKVAELAQRLGVPVVTTFMGRGLLADAPTPPLGTYIGVAGDAEITRLVEESDGLFLLGAILSDTNFAVSQRKIDLRKTIHAFDRAVTLGYHTYADIPLAGLVDALLEGLPPSDRTTRGKEPHAYPTGLQADGEPIAPMDIARAVNDRVRAGQEPLLIAADMGDCLFTAMDMIDAGLMAPGYYAGMGFGVPAGIGAQCVSGGKRILTVVGDGAFQMTGWELGNCRRLGIDPIVILFNNASWEMLRTFQPESAFNDLDDWRFADMAAGMGGDGVRVRTRAELKAALDKAFATRGRFQLIEAMIPRGVLSDTLARVVQGQKRLHAAPRE
notes: made in house; host or cells: E. coli BL21(DE3)
[1]
  K0.5: 0.89 ± 0.15 mM
  kcat: 0.383 ± 0.033 s⁻¹
  kcat/Km: 450 ± 83 M⁻¹ s⁻¹
[2]
  K0.5: 2.0 ± 0.1 mM
  kcat: 0.163 ± 0.0033 s⁻¹
  kcat/Km: 80 ± 3.3 M⁻¹ s⁻¹

B2: Azospirillum brasilense phenylpyruvate decarboxylase (AbPPDC) variant Q536A, SEQ ID 34 (Azospirillum brasilense; Q536A) (protein)
chain: MKLAEALLRALKDRGAQAMFGIPGDFALPFFKVAEETQILPLHTLSHEPAVGFAADAAARYSSTLGVAAVTYGAGAFNMVNAVAGAYAEKSPVVVISGAPGTTEGNAGLLLHHQGRTLDTQFQVFKEITVAQARLDDPAKAPAEIARVLGAARALSRPVYLEIPRNMVNAEVEPVGDDPAWPVDRDALAACADEVLAAMRSATSPVLMVCVEVRRYGLEAKVAELAQRLGVPVVTTFMGRGLLADAPTPPLGTYIGVAGDAEITRLVEESDGLFLLGAILSDTNFAVSQRKIDLRKTIHAFDRAVTLGYHTYADIPLAGLVDALLEGLPPSDRTTRGKEPHAYPTGLQADGEPIAPMDIARAVNDRVRAGQEPLLIAADMGDCLFTAMDMIDAGLMAPGYYAGMGFGVPAGIGAQCVSGGKRILTVVGDGAFQMTGWELGNCRRLGIDPIVILFNNASWEMLRTFQPESAFNDLDDWRFADMAAGMGGDGVRVRTRAELKAALDKAFATRGRFQLIEAMIPRGVLSDTLARFVQGAKRLHAAPRE
notes: as for B1
[3]
  K0.5: 0.52 ± 0.03 mM
  kcat: 0.5 ± 0.017 s⁻¹
  kcat/Km: 967 ± 67 M⁻¹ s⁻¹
[4]
  K0.5: 0.72 ± 0.02 mM
  kcat: 0.333 ± 0.0033 s⁻¹
  kcat/Km: 450 ± 17 M⁻¹ s⁻¹

B3: Azospirillum brasilense phenylpyruvate decarboxylase (AbPPDC) variant Q536G, SEQ ID 32 (Azospirillum brasilense; Q536G) (protein)
chain: MKLAEALLRALKDRGAQAMFGIPGDFALPFFKVAEETQILPLHTLSHEPAVGFAADAAARYSSTLGVAAVTYGAGAFNMVNAVAGAYAEKSPVVVISGAPGTTEGNAGLLLHHQGRTLDTQFQVFKEITVAQARLDDPAKAPAEIARVLGAARALSRPVYLEIPRNMVNAEVEPVGDDPAWPVDRDALAACADEVLAAMRSATSPVLMVCVEVRRYGLEAKVAELAQRLGVPVVTTFMGRGLLADAPTPPLGTYIGVAGDAEITRLVEESDGLFLLGAILSDTNFAVSQRKIDLRKTIHAFDRAVTLGYHTYADIPLAGLVDALLEGLPPSDRTTRGKEPHAYPTGLQADGEPIAPMDIARAVNDRVRAGQEPLLIAADMGDCLFTAMDMIDAGLMAPGYYAGMGFGVPAGIGAQCVSGGKRILTVVGDGAFQMTGWELGNCRRLGIDPIVILFNNASWEMLRTFQPESAFNDLDDWRFADMAAGMGGDGVRVRTRAELKAALDKAFATRGRFQLIEAMIPRGVLSDTLARFVQGGKRLHAAPRE
notes: as for B1
[5]
  K0.5: 0.76 ± 0.02 mM
  kcat: 0.35 ± 0 s⁻¹
  kcat/Km: 467 ± 17 M⁻¹ s⁻¹
[6]
  K0.5: 1.9 ± 0.2 mM
  kcat: 0.183 ± 0.013 s⁻¹
  kcat/Km: 96.7 ± 10 M⁻¹ s⁻¹

B4: Azospirillum brasilense phenylpyruvate decarboxylase (AbPPDC) variant F532L, SEQ ID 30 (Azospirillum brasilense; F532L) (protein)
chain: MKLAEALLRALKDRGAQAMFGIPGDFALPFFKVAEETQILPLHTLSHEPAVGFAADAAARYSSTLGVAAVTYGAGAFNMVNAVAGAYAEKSPVVVISGAPGTTEGNAGLLLHHQGRTLDTQFQVFKEITVAQARLDDPAKAPAEIARVLGAARALSRPVYLEIPRNMVNAEVEPVGDDPAWPVDRDALAACADEVLAAMRSATSPVLMVCVEVRRYGLEAKVAELAQRLGVPVVTTFMGRGLLADAPTPPLGTYIGVAGDAEITRLVEESDGLFLLGAILSDTNFAVSQRKIDLRKTIHAFDRAVTLGYHTYADIPLAGLVDALLEGLPPSDRTTRGKEPHAYPTGLQADGEPIAPMDIARAVNDRVRAGQEPLLIAADMGDCLFTAMDMIDAGLMAPGYYAGMGFGVPAGIGAQCVSGGKRILTVVGDGAFQMTGWELGNCRRLGIDPIVILFNNASWEMLRTFQPESAFNDLDDWRFADMAAGMGGDGVRVRTRAELKAALDKAFATRGRFQLIEAMIPRGVLSDTLARLVQGQKRLHAAPRE
notes: as for B1
[7]
  K0.5: 0.94 ± 0.27 mM
  kcat: 0.5 ± 0.083 s⁻¹
  kcat/Km: 583 ± 200 M⁻¹ s⁻¹
[8]
  K0.5: 1.6 ± 0.1 mM
  kcat: 0.217 ± 0.005 s⁻¹
  kcat/Km: 137 ± 5 M⁻¹ s⁻¹

B5: Azospirillum brasilense phenylpyruvate decarboxylase (AbPPDC) variant Q536L, SEQ ID 36 (Azospirillum brasilense; Q536L) (protein)
chain: MKLAEALLRALKDRGAQAMFGIPGDFALPFFKVAEETQILPLHTLSHEPAVGFAADAAARYSSTLGVAAVTYGAGAFNMVNAVAGAYAEKSPVVVISGAPGTTEGNAGLLLHHQGRTLDTQFQVFKEITVAQARLDDPAKAPAEIARVLGAARALSRPVYLEIPRNMVNAEVEPVGDDPAWPVDRDALAACADEVLAAMRSATSPVLMVCVEVRRYGLEAKVAELAQRLGVPVVTTFMGRGLLADAPTPPLGTYIGVAGDAEITRLVEESDGLFLLGAILSDTNFAVSQRKIDLRKTIHAFDRAVTLGYHTYADIPLAGLVDALLEGLPPSDRTTRGKEPHAYPTGLQADGEPIAPMDIARAVNDRVRAGQEPLLIAADMGDCLFTAMDMIDAGLMAPGYYAGMGFGVPAGIGAQCVSGGKRILTVVGDGAFQMTGWELGNCRRLGIDPIVILFNNASWEMLRTFQPESAFNDLDDWRFADMAAGMGGDGVRVRTRAELKAALDKAFATRGRFQLIEAMIPRGVLSDTLARFVQGLKRLHAAPRE
notes: as for B1
[9]
  K0.5: 1.51 ± 0.26 mM
  kcat: 1.38 ± 0.1 s⁻¹
  kcat/Km: 933 ± 183 M⁻¹ s⁻¹
[10]
  K0.5: 1.34 ± 0.23 mM
  kcat: 0.45 ± 0.0283 s⁻¹
  kcat/Km: 350 ± 67 M⁻¹ s⁻¹
